Columns and labels:
[1] = molecular target: PEAK3^tandem-pS69 phosphopeptide (residues 54-74) (human); assay: ITC
[2] = molecular target: PEAK3^tandem-pS69 peptide pre-complexed with 14-3-3ɣ (human); assay: ITC
[3] = molecular target: full length recombinant PEAK3 (PEAK3^FL) from insect cells (human) (UniProt Q6ZS72); assay: SEC-MALS
[4] = molecular target: PEAK2^IDR1 (N-terminally truncated PEAK2, residues 802-1406) (human) (UniProt Q86YV5); assay: SEC-MALS
Sequence of PEAK2^IDR1 (N-terminally truncated PEAK2, residues 802-1406) (human) (Q86YV5 802-1406): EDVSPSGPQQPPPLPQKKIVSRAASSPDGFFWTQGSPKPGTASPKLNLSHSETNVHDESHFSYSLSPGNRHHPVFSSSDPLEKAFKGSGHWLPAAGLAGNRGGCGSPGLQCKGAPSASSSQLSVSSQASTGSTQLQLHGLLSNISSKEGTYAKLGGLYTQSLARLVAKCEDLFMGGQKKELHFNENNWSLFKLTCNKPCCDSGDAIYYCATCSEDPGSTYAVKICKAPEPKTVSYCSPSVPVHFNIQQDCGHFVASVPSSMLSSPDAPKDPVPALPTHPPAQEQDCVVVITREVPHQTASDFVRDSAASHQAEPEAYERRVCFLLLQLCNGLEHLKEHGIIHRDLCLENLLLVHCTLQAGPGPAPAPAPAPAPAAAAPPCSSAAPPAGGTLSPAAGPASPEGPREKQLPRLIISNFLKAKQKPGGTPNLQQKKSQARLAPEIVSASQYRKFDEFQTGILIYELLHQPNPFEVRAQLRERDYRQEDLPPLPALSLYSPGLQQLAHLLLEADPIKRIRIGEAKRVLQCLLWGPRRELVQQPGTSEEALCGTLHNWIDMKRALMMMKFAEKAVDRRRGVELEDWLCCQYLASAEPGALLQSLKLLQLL

Sequence of CrkII NSH3 domain (CrkII^NSH3) (P46108 134-191): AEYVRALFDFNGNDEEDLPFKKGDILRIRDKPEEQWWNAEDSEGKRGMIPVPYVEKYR
Sequence of full length recombinant PEAK3 (PEAK3^FL) from insect cells (human) (Q6ZS72 whole entry, the tested form may be a part): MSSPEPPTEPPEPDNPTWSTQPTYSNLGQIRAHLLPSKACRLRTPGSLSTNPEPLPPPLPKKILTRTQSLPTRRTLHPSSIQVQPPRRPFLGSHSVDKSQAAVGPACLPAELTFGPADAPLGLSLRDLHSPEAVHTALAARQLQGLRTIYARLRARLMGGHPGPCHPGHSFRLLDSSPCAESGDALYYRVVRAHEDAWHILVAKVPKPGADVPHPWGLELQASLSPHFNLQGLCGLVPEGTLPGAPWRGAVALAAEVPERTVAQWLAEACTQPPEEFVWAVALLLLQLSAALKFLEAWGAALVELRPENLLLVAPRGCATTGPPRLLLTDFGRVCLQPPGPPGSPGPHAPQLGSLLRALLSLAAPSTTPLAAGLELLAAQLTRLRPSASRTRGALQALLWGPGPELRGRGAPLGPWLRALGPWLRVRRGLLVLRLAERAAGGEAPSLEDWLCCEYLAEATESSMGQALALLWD

Q: For human 14-3-3γ (natural protein), which Kd [1] is on record?
A: 130 nM

Q: For “CrkII NSH3 domain (CrkII^NSH3) (from UniProt P46108-1 134-191) (domain or fragment)”, which Kd [2] is on record?
A: 3600 nM

Q: Which stoichiometry N (ratio (dimer:dimer)) [3] does the source give for “insect cell derived 14-3-3ε,ζ heterodimer (complex)” here?
A: 1

Q: For “full length CrkII, dimer (CrkII^FL dimer) (from UniProt P46108-1 1-304) (natural protein)”, which stoichiometry N [4] is on record?
A: 1 ratio (2:2)

Source: paper doi:10.1101/2022.09.01.506260
